Source: article PMC10997057

Biological target: murine splenic AA amyloid extract (mouse (endogenous in spleen)) (UniProt P05367)
Assay: co-sedimentation; pulldown with murine splenic AA amyloid extract in the presence of 20 μg non-radiolabeled peptide (competition)

Sequence of murine splenic AA amyloid extract (mouse (endogenous in spleen)) (P05367 20-122): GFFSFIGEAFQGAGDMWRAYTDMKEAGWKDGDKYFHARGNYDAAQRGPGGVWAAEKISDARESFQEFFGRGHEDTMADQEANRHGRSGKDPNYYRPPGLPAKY

B1: non-radiolabeled peptide p5+14 (peptide)
peptide: GGGYSKAQKAQAKQAKQAQKAQKAQAKQAKQAQKAQKAQAKQAKQ
% of ^99mTc-p5+14 bound in the presence of 20 μg non-radiolabeled peptide: 4%
